Experimental data taken from US20090232801A1.

Columns and labels:
Aβ(1-42) fibrils (human) = assay: fibril pull-down: antibody incubated 20 h at 37 °C with Aβ(1-42) fibrils, centrifuged; SDS-PAGE densitometry of the heavy chain in pellet and supernatant
[1] = biological target: Aβ(1-42) globulomer (human); assay: dot blot densitometry; reference: Aβ(1-40) monomer
[2] = biological target: Aβ(1-42) globulomer (human); assay: dot blot densitometry; reference: Aβ(1-42) monomer
Aβ(1-40) monomer (human) = assay: dot blot, 10 pmol antigen on nitrocellulose, 0.2 µg/ml antibody, densitometry
Chain of Aβ(1-40) monomer (human) (peptide, as listed by the source): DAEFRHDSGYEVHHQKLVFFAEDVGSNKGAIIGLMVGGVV

[3] = biological target: Aβ(1-42) globulomer (human); assay: as above
[4] = biological target: Aβ(1-42) monomer, HFIP pretreated (human); assay: as above
Chain of Aβ(1-42) monomer, HFIP pretreated (human) (peptide, as listed by the source): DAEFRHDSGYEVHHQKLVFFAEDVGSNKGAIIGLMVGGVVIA

| Fibril bound Ab fraction (Aβ(1-42) fibrils (human)) [%] | Ratio RD Aβ(1-42) globulomer/RD Aβ(1-40) monomer [1] | Ratio RD Aβ(1-42) globulomer/RD Aβ(1-42) monomer [2] | Reflective Density (RD) [10 pmol] (Aβ(1-40) monomer (human)) [RD] | Reflective Density (RD) [10 pmol] [3] [RD] | Reflective Density (RD) [10 pmol] [4] [RD] | Substance |
| --- | --- | --- | --- | --- | --- | --- |
| 91 | – | – | – | – | – | mMAb 6E10 (Signet Inc. Cat.#9320) (antibody) |
| – | 10 | 0.42 | 0.15 | 1.5 | 3.5 | mouse monoclonal antibody 4G8 |
| 9 | – | – | – | – | – | unspecific antibody IgG2a |
